Reference: patent publication US20050074826A1 (published 2005)

B1: MIG (ligand, UniProt Q07325 23-125, looked up)
chain: TPVVRKGRCSCISTNQGTIHLQSLKDLKQFAPSPSCEKIEIIATLKNGVQTCLNPDSADVKELIKKWEKQVSQKKKQKNGKKHQKKKVLKVRKSQRSRQKKTT
notes: also called monokine induced by gamma interferon; CXCR3 ligand MIG
B2: mouse I-TAC (ligand, UniProt Q9JHH5 22-100, looked up)
chain: FLMFKQGRCLCIGPGMKAVKMAEIEKASVIYPSNGCDKVEVIVTMKAHKRQRCLDPRSKQARLIMQAIEKKNFLRRQNM
notes: also called mI-TAC; I-TAC (mouse protein)
B3: human I-TAC (ligand, UniProt O14625 22-94, looked up)
chain: FPMFKRGRCLCIGPGVKAVKVADIEKASIMYPSNNCDKIEVIITLKENKGQRCLNPKSKQARLIIKKVERKNF
notes: also called hI-TAC; CXCL11
B4: CCX-CKR2, mouse (on E13 fetal liver cells) (receptor, UniProt P56485 1-362, looked up)
chain: MDVHLFDYAEPGNYSDINWPCNSSDCIVVDTVQCPTMPNKNVLLYTLSFIYIFIFVIGMIANSVVVWVNIQAKTTGYDTHCYILNLAIADLWVVITIPVWVVSLVQHNQWPMGELTCKITHLIFSINLFGSIFFLACMSVDRYLSITYFTGTSSYKKKMVRRVVCILVWLLAFFVSLPDTYYLKTVTSASNNETYCRSFYPEHSIKEWLIGMELVSVILGFAVPFTIIAIFYFLLARAMSASGDQEKHSSRKIIFSYVVVFLVCWLPYHFVVLLDIFSILHYIPFTCQLENVLFTALHVTQCLSLVHCCVNPVLYSFINRNYRYELMKAFIFKYSAKTGLTKLIDASRVSETEYSALEQNTK
notes: whole, on cells; also called SDF-1 receptor on E13 fetal liver cells
B5: CXCR4, human (receptor, UniProt P61073 1-352, looked up)
chain: MEGISIYTSDNYTEEMGSGDYDSMKEPCFREENANFNKIFLPTIYSIIFLTGIVGNGLVILVMGYQKKLRSMTDKYRLHLSVADLLFVITLPFWAVDAVANWYFGNFLCKAVHVIYTVNLYSSVLILAFISLDRYLAIVHATNSQRPRKLLAEKVVYVGVWIPALLLTIPDFIFANVSEADDRYICDRFYPNDLWVVVFQFQHIMVGLILPGIVILSCYCIIISKLSHSKGHQKRKALKTTVILILAFFACWLPYYIGISIDSFILLEIIKQGCEFENTVHKWISITEALAFFHCCLNPILYAFLGAKFKTSAQHALTSVSRGSSLKILSKGKRGGHSSVSTESESSSFHSS
notes: whole, on cells; also called CXCR4 on CEM-NKr cells; leukocyte CXCR4

Columns and labels:
[1] = target: T1, CCX-CKR2 (RDC1), human (human, UniProt P25106 1-362); test: competition with 125I I-TAC on MCF-7 cells
T1 construct: also called CCX-CR2; SDF1 receptor on MCF-7 cells

[2] = target: B4; test: competition with radiolabeled human SDF-1 on mouse E13 fetal liver cells
[3] = target: B5; test: dose response competition with 125I SDF-1α on CEM-NKr cells (CXCR4)
[4] = target: T1, CCX-CKR2 (RDC1), human; test: homologous competition with 125I I-TAC on MCF-7 cells, medium alone
[5] = target: T2, human SDF-1α (human, UniProt P48061-2 22-89); test: radioligand binding on mouse E13 fetal liver cells
T2 construct: also called hSDF-1α; SDF-1a

[6] = target: T2, human SDF-1α; test: DisplaceMax displacement of 125I SDF-1α on CEM-NKr cells (CXCR4)

T2 sequence (P48061 22-89 limits assumed): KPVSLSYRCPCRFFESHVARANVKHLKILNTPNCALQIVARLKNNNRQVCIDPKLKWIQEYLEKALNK
T1 sequence (P25106 whole entry): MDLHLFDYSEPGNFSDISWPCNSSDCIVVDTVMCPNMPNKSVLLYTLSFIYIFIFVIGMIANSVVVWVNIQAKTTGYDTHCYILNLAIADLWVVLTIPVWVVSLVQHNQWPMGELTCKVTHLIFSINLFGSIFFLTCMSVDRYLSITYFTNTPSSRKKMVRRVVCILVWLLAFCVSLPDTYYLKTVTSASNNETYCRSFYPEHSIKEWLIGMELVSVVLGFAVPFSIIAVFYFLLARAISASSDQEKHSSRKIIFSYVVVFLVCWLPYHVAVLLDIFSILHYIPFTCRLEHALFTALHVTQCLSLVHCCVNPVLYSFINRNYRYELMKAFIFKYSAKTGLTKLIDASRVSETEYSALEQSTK

Does B1 bind [1]?
Result: no binding

Does B2 bind [2]?
Result: binds

Does B3 bind [3]?
Result: no binding

What about the IC50 [4] of the same binder?
Its IC50 is 1 nM.

Does B3 bind [2]?
Result: binds

Does B4 bind [5]?
Result: binds

Does B5 bind [6]?
Result: binds
